Measured values reported in patent US20060194276A1 (GOVERMMENT OF THE USA AS REPRESENTED BY THE SECRETARY OF …, published 2006).

Molecular target: T1, human CD22 (human, UniProt P20273 20-847)
T1 construct: whole, on cells; Always presented on living CD22+ tumor cells (Raji for all numbers); also called CD22 antigen; target antigen
T1 sequence (looked up): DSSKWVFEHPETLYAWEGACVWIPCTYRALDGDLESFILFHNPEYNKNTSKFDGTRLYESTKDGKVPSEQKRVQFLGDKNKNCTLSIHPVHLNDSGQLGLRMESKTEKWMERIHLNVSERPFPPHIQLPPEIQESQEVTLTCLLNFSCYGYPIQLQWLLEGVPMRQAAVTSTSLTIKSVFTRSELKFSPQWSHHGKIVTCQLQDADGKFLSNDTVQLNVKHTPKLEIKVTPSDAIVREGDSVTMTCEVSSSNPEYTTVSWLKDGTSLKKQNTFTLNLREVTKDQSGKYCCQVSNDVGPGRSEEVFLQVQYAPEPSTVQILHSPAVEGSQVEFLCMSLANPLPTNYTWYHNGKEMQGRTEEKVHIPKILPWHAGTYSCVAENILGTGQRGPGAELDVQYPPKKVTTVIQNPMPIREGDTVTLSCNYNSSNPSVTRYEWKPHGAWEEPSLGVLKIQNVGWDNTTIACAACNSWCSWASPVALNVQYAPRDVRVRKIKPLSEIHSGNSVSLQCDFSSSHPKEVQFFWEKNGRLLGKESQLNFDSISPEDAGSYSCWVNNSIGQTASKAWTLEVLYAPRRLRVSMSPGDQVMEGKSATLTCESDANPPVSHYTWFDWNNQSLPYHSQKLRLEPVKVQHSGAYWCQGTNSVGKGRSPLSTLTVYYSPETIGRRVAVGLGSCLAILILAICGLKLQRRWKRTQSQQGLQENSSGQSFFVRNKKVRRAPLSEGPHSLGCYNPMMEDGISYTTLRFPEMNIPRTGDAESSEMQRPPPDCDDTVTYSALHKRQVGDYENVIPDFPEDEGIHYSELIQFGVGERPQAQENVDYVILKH
Assay: flow cytometry on CD22+ Raji cells, equilibrium binding, non-linear regression
Experimental: Specific binding of the constructs was determined by flow cytometry using the human CD22⁺ B cell lines Raji, Ramos, Daudi and CA46. Human T cell lines Jurkat and HUT102 were used as negative controls. Cells (5×10⁵) were incubated with 100 μl of a sample containing either the scFv fragments, or control antibodies, in FACS buffer (PBS, 0.1% NaN₃, 2% FBS) for 45 min at 4° C. in round bottom 96-well microtiter plates. Cells were pelleted at 200 g at 4° C. for 5 min and washed twice with 200 μl FACS buffer. […] Background fluorescence was determined by using cells incubated with 9E10 antibody and FITC-labeled anti-mouse antibody under the same conditions. Stained cells were analyzed on a FACScan Flow Cytometer (BD Bioscience, San Jose, Calif.), and median fluorescence intensity (MFI) was calculated using the CellQuest™ software (BD Bioscience).
Affinity measurements were performed as previously described (Benedict et al., J Immunol Methods 201:223-231, 1997) with the following modifications: Varying concentrations of antibodies were incubated in triplicate with 5×10⁵ Raji cells at room temperature in FACS buffer for two hours. Bound antibodies were detected under the same conditions, as described above. After two final washing steps, cells were fixed in PBS containing 2% paraformaldehyde for 15 minutes at room temperature and analyzed by flow cytometry. […]

B1: murine monoclonal antibody RFB4 (antibody, V domains shown)
VH: EVQLVESGGGLVKPGGSLKLSCAASGFAFSIYDMSWVRQTPEKRLEWVAYISSGGGTTYYPDTVKGRFTISRDNAKNTLYLQMSSLKSEDTAMYYCARHSGYGSSYGVLFAYWGQGTLVTVSA
VL: DIQMTQTTSSLSASLGDRVTISCRASQDISNYLNWYQQKPDGTVKLLIYYTSILHSGVPSRFSGSGSGTDYSLTISNLEQEDFATYFCQQGNTLPWTFGGGTKLEIK
notes: also called mAb RFB4; murine mAb RFB4
Binder B1 has a Kd of 2 nM.
